# Residue numbers refer to the chain shown, from its start. In names and notes the source's numbering stands.
# B1: feline IgG1a S434G (antibody, part only; not given: Variable domains, not shown: another chain or arm of the molecule)
# constant: ASTTAPSVFPLAPSCGTTSGATVALACLVLGYFPEPVTVSWNSGALTSGVHTFPAVLQASGLYSLSSMVTVPSSRWLSDTFTCNVAHPPSNTKVDKTVRKTDHPPGPKPCDCPKCPPPEMLGGPSIFIFPPKPKDTLSISRTPEVTCLVVDLGPDDSDVQITWFVDNTQVYTAKTSPREEQFNSTYRVVSVLPILHQDWLKGKEFKCKVNSKSLPSPIERTISKAKGQPHEPQVYVLPPAQEELSRNKVSVTCLIKSFHPPDIAVEWEITGQPEPENNYRTTPPQLDSDGTYFVYSKLSVDRSHWQRGNTYTCSVSHEALHGHHTQKSLTQSPGK
# B2: feline IgG1a S252F (antibody, part only; not given: Variable domains, not shown: another chain or arm of the molecule)
# constant: B1 constant with S138F, G322S
# B3: feline IgG1a S252H (antibody, part only; not given: Variable domains, not shown: another chain or arm of the molecule)
# constant: B1 constant with S138H, G322S
# B4: feline IgG1a S252R/S428L/S434F (antibody, part only; not given: Variable domains, not shown: another chain or arm of the molecule)
# constant: B1 constant with S138R, S316L, G322F
# B5: feline IgG1a S252Y (antibody, part only; not given: Variable domains, not shown: another chain or arm of the molecule)
# constant: B1 constant with S138Y, G322S
# B6: feline IgG1a S428L/S434Y (antibody, part only; not given: Variable domains, not shown: another chain or arm of the molecule; small tags and cut ends)
# constant: B1 constant with S316L, G322Y
# B7: feline IgG1a S428Y (antibody, part only; not given: Variable domains, not shown: another chain or arm of the molecule)
# constant: B1 constant with S316Y, G322S
# B8: feline IgG1a A431K (antibody, part only; not given: variable domains and light chain, not shown: another chain or arm of the molecule)
# constant: B1 constant with A319K, G322S
# B9: feline IgG1a D312P (antibody, part only; not given: Variable domains, not shown: another chain or arm of the molecule)
# constant: B1 constant with D198P, G322S
# B10: feline IgG1a H436Y (antibody, part only; not given: Variable domains, not shown: another chain or arm of the molecule)
# constant: B1 constant with G322S, H324Y
# B11: feline IgG1a L314K (antibody, part only; not given: variable domains and light chain, not shown: another chain or arm of the molecule)
# constant: B1 constant with L200K, G322S
# B12: feline IgG1a Q311W (antibody, part only; not given: Variable domains, not shown: another chain or arm of the molecule)
# constant: B1 constant with Q197W, G322S
# B13: feline IgG1a Q311Y (antibody, part only; not given: Variable domains, not shown: another chain or arm of the molecule)
# constant: B1 constant with Q197Y, G322S
# B14: feline IgG1a S252F/S434H (antibody, part only; not given: Variable domains, not shown: another chain or arm of the molecule)
# constant: B1 constant with S138F, G322H
# B15: feline IgG1a S252R/S434H (antibody, part only; not given: Variable domains, not shown: another chain or arm of the molecule)
# constant: B1 constant with S138R, G322H
# B16: feline IgG1a S252Y/S434H (antibody, part only; not given: Variable domains, not shown: another chain or arm of the molecule)
# constant: B1 constant with S138Y, G322H
# B17: feline IgG1a S254C (antibody, part only; not given: Variable domains, not shown: another chain or arm of the molecule)
# constant: B1 constant with S140C, G322S
# B18: feline IgG1a S254I (antibody, part only; not given: Variable domains, not shown: another chain or arm of the molecule)
# constant: B1 constant with S140I, G322S
# B19: feline IgG1a S254P (antibody, part only; not given: Variable domains, not shown: another chain or arm of the molecule)
# constant: B1 constant with S140P, G322S
# B20: feline IgG1a S254V (antibody, part only; not given: Variable domains, not shown: another chain or arm of the molecule)
# constant: B1 constant with S140V, G322S
# B21: feline IgG1a T256F (antibody, part only; not given: Variable domains, not shown: another chain or arm of the molecule)
# constant: B1 constant with T142F, G322S
# B22: feline IgG1a S252R (antibody, part only; not given: Variable domains, not shown: another chain or arm of the molecule)
# constant: B1 constant with S138R, G322S
# B23: feline IgG1a S434R (antibody, part only; not given: Variable domains, not shown: another chain or arm of the molecule)
# constant: B1 constant with G322R
# B24: feline IgG1a D312P/S434Y (antibody, part only; not given: Variable domains, not shown: another chain or arm of the molecule)
# constant: B1 constant with D198P, G322Y
# B25: feline IgG1a L314K/S434Y (antibody, part only; not given: Variable domains, not shown: another chain or arm of the molecule)
# constant: B1 constant with L200K, G322Y
# B26: feline IgG1a Q311W/D312P (antibody, part only; not given: Variable domains, not shown: another chain or arm of the molecule)
# constant: B1 constant with Q197W, D198P, G322S
# Tests used:
# [1] = target: feline FcRn complex (FcRn-α subunit and β-microglobulin), biotin labeled (feline); experiment: SPR, pH 6
# [2] = target: feline FcRn complex (FcRn-α subunit and β-microglobulin), biotin labeled (feline); experiment: SPR, pH 7.4
Binder,Kd [1],Kd [2]
B1,9.58 nM,21.6 nM
B2,123 nM,5960 nM
B3,49.9 nM,8410 nM
B4,6.43 nM,774 nM
B5,893 nM,12700 nM
B6,2.75 nM,46.9 nM
B7,16.4 nM,18700 nM
B8,10.1 nM,9.39 nM
B9,3.96 nM,2960 nM
B10,10.2 nM,43.4 nM
B11,8.43 nM,41.5 nM
B12,4.18 nM,207 nM
B13,5.53 nM,41.4 nM
B14,1.69 nM,18.1 nM
B15,2.21 nM,41.3 nM
B16,0.774 nM,11.7 nM
B17,44 nM,2160 nM
B18,12.4 nM,16100 nM
B19,27.3 nM,5690 nM
B20,9.91 nM,49800 nM
B21,50.3 nM,427 nM
B22,1.48 nM,5.06 nM
B23,1.19 nM,16.3 nM
B24,22.6 nM,1800 nM
B25,244 nM,7430 nM
B26,2.76 nM,50.3 nM

# Reference: patent US20240400708A1
